By Kd is commonly meant the constant that tells how readily two partners part at equilibrium.

This note sets out measurements from US20220153854A1 (Ablynx, published 2022).

One assay has as its target T1, human IL-13 (human, UniProt P35225 35-146, limits assumed).
T1 construct: Recombinant soluble protein; also called hIL-13; soluble hIL-13
The experiment in a line: Gyrolab in-solution affinity, 48 h incubation; 95% CI 3.8-11.5 pM. How it is done: (§1) Under receptor-controlled measurements a serial dilution of OX40L (ranging from 1.3 μM-0.031 μM), IL-13 (ranging from 0.1 μM-0.25 fM), or serum albumin (ranging from 100 μM-3.2 μM) and a fixed amount of ISVD construct F027100187 (5 nM in case of OX40L, […] in case of IL-13 and 30 nM in case of HSA and cyno SA) were mixed to allow interaction and incubated for either 24 or 48 hours (in case of OX40L and IL-13) or 2 hours (in case of serum albumin) to reach equilibrium.
(§2) Biotinylated human OX40L/IL-13/serum albumin was captured in the microstructures of a Gyrolab Bioaffy 1000 CD, which contains columns of beads and was used as a molecular probe to capture free F027100187 from the equilibrated solution. The mixture of OX40L/IL13/serum albumin and F027100187 (containing free OX40UIL-13/serum albumin, free F027100187 and OX40L/IL13/serum albumin—F027100187 complexes) was allowed to flow through the beads, and a small percentage of free F027100187 was captured, which is proportional to the free ISVD construct concentration. A fluorescently labeled anti-ISVD antibody, ABH0086-Alexa647, was then injected to label any captured F027100187 and after rinsing away excess of fluorescent probe, the change in fluorescence was determined. Fitting of the dilution series was done using Gyrolab Analysis software, where KD- and receptor-controlled curves were analyzed to determine the KD value.

A further assay concerns the target T2, cyno IL-13 (cynomolgus monkey, UniProt Q0PW92 21-132).
T2 construct: also called cynomolgus monkey IL-13
The experiment in a line: Gyrolab in-solution affinity, 48 h incubation; 95% CI 9.5-13.9 pM. Here is the method: as §1, §2

For assay [1], the target named is T3, cyno OX40L (cynomolgus monkey, UniProt G7NVH7 51-183).
T3 construct: also called cyOX40L; cynomolgus monkey OX40L
T3 sequence: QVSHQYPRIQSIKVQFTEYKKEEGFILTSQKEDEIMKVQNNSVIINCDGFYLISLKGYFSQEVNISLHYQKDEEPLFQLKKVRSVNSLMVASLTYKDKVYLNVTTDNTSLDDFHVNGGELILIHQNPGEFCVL
As to the kind of experiment: Gyrolab in-solution affinity, 24 h incubation; 95% CI 101-156 pM. Here is the method: as §1, §2

Assay [2] deals with T4, human OX40L (human, UniProt P23510 51-183).
T4 construct: Protein in solution or immobilised (SPR, Gyrolab); construct not described; also called huOX40L; hOX40L
T4 sequence (looked up): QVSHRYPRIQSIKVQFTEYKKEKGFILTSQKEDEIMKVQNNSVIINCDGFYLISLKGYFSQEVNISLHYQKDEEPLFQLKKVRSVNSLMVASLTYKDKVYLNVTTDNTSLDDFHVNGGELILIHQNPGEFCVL
As to the kind of experiment: Gyrolab in-solution affinity, 24 h incubation; 95% CI 64.7-91.0 pM. How it is done: as §1, §2

The target in assay [3] is T4, human OX40L. The experiment in a line: Gyrolab in-solution affinity, 24 h incubation; 95% CI 108-141 pM. How it is done: as §1, §2
For assay [4], the target named is T3, cyno OX40L. As to the kind of experiment: Gyrolab in-solution affinity, 48 h incubation; 95% CI 225-326 pM. Here is the method:
as §1, §2

Another assay addresses T5, human TRAIL (human, UniProt P50591 114-281, limits assumed).
T5 construct: also called hTRAIL
As to the kind of experiment: SPR (ProteOn XPR36), cytokine immobilised by amine coupling. Here is the method:
(§3) Absence of binding to OX40L and IL-13 related human cytokines was assessed via SPR (Proteon XPR36). As IL-13 related cytokine, IL-4 was assessed. As OX40L related targets, human TRAIL, CD30L, CD40L and RANKL were assessed.
(§4) To this end, the cytokines were immobilized on a ProteOn GLC sensor chip at 25 μg/mL for 600 s using amine coupling, with 80 seconds injection of EDC/NHS for activation and a 150-seconds injection of 1 M Ethanolamine HCl for deactivation (ProteOn Amine Coupling Kit. cat. 176-2410). Flow rate during activation and deactivation was set to 30 μl/min, and during ligand injection to 25 μl/min. The pH of the 10 mM acetate immobilization buffer was 6.0 for all cytokines, except for RANKL where the pH was 5.0.
(§5) Next, 1 μM of F027100187 was injected for 2 minutes and allowed to dissociate for 600 s at a flow rate of 45 μL/min. As running buffer PBS (pH7.4)+0.005% Tween 20 was used. As positive controls, 100 nM α-hIL-4, α-hTRAIL, α-hCD30L, α-hCD40L Ab and α-hRANKL VHH (Nanobody®, Nb) were injected. Interaction between F027100187 and the positive controls with the immobilized targets was measured by detection of increases in refractory index which occurs as a result of mass changes on the chip upon binding.

The target of another assay is T6, human CD30L (human, UniProt P32971 63-234, limits assumed).
T6 construct: also called hCD30L
T6 sequence (looked up): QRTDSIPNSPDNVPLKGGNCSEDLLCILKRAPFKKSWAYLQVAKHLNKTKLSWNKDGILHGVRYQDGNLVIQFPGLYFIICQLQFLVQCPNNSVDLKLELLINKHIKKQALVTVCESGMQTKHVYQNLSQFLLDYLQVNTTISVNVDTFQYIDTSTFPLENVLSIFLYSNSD
The description is as above. How it is done: as §3, §4, §5

Another assay has as its target T7, human IL-4 (human, UniProt P05112 25-153).
T7 construct: also called hIL-4
T7 sequence (looked up): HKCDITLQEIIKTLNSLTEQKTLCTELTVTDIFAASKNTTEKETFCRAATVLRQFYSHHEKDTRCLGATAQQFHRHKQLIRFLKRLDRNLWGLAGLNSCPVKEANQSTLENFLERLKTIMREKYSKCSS
The assay is described as above. Here is the method:
as §3, §4, §5

Another assay has as its target T8, human CD40L (human, UniProt P29965 113-261, limits assumed).
T8 construct: also called hCD40L
T8 sequence (looked up): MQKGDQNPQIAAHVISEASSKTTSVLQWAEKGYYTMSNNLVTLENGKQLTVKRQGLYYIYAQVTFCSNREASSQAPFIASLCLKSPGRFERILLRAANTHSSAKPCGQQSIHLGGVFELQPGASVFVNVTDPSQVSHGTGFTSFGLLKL
Described as above. Here is the method:
as §3, §4, §5

In another assay the target is T9, human serum albumin (human, UniProt P02768 25-609).
T9 construct: also called HSA; HAS
As to the kind of experiment: Gyrolab in-solution affinity, 2 h incubation; 95% CI 6.7-8.9 nM. How it is done: as §1, §2

T9 sequence (P02768 25-609 limits assumed): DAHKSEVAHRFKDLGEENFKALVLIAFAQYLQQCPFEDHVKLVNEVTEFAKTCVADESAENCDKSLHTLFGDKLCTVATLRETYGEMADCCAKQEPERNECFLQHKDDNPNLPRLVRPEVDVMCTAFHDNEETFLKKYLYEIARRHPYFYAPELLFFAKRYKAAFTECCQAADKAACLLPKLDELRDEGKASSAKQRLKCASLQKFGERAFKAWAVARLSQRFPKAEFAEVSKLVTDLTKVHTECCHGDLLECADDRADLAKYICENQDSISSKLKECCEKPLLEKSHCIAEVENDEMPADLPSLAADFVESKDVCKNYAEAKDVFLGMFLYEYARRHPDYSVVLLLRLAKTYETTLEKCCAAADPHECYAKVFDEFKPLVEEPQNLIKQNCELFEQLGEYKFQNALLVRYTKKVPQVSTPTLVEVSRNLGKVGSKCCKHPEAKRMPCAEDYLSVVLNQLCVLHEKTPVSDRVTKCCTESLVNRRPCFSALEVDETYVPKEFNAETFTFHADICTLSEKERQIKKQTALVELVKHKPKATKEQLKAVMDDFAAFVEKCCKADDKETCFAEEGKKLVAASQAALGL
T1 sequence (P35225 35-146 limits assumed): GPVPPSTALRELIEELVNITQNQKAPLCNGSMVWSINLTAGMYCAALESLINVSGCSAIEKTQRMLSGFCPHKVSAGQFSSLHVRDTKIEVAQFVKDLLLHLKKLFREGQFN
T2 sequence (Q0PW92 entry or part of it): as the sequence (P35225 35-146 limits assumed) above, with G1S, R10K, M42V, S67N, H83R, L100V counted along it
T5 sequence (P50591 114-281 limits assumed): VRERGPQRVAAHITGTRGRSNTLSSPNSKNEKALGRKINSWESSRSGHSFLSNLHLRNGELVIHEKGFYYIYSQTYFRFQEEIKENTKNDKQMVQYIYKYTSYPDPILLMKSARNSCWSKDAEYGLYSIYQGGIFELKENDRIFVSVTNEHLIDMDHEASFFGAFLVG

B1: ISVD construct F027100187 (other)
chain: DVQLVESGGGVVQPGGSLRLSCAASRSIGRYDRMGWYRHRPGEPRELVATITGGSSINYGDSVKGRFTISIDNSKNTVYLQMNSLRPEDTALYYCNFNKYQISRDTWGQGTLVTVSSGGGGSGGGSEVQLVESGGGVVQPGGSLRLSCAASGRTFSSYRMGWFRQAPGKEREFVAALSGDGYSTYTANSVKGRFTISRDNSKNTVYLQMNSLRPEDTALYYCAAKLQYVSGWSYDYPYWGQGTLVTVSSGGGGSGGGSEVQLVESGGGVVQPGGSLRLSCAASGFTFRSFGMSWVRQAPGKGPEWVSSISGSGSDTLYADSVKGRFTISRDNSKNTLYLQMNSLRPEDTALYYCTIGGSLSRSSQGTLVTVSSGGGGSGGGSEVQLVESGGGVVQPGGSLRLSCAASGFTFNNYAMKWVRQAPGKGLEWVSSITTGGGSTDYADSVKGRFTISRDNSKNTLYLQMNSLRPEDTALYYCANVPFGYYSEHFSGLSFDYRGQGTLVTVSSA
notes: Tetravalent, trispecific single-chain construct of four VHH (ISVD) domains: one against OX40L, two against IL-13, one against serum albumin; also called F0271000187; F27100187
With B1, the Kd was 0.0076 nM with human IL-13; 0.0117 nM with cyno IL-13; 0.128 nM in the assay with cyno OX40L [1]; 0.0778 nM in the assay with human OX40L [2]; 0.125 nM with human OX40L [3]; 0.275 nM with cyno OX40L [4]. The molecule further registered a Kd in the assay with human serum albumin of 7.8 nM. Further, the binding result with human TRAIL, with human CD30L, with human IL-4 and with human CD40L was “no binding (tested: 1 µM)” in each case.
